Reference: patent US20170313750A1 (Novo Nordisk, published 2017)
Numbered stars: 1 amine (or outer) side, 2 acyl side, 3 side chain; on linkers, the order of the positions; unused ones are H or OH. Side chains are listed from the residue outwards. * marks the point of attachment. Hexadecanoyl(16-SO3H) = O=C(CCCCCCCCCCCCCCCS(=O)(=O)O)*; C18 diacid = O=C(O)CCCCCCCCCCCCCCCCC(=O)*; γGlu = O=C(O)[C@H](CCC(=O)[*:2])N[*:1]; Isovaleryl = CC(C)CC(=O)*; AEEA = NCCOCCOCC(=O)O

T1: human Y2 receptor (P49146, NPY2R_HUMAN, Uniprot) (human, UniProt P49146 1-381)
T1 construct: whole, on cells; also called human NPY Y2 receptor
T1 sequence (looked up): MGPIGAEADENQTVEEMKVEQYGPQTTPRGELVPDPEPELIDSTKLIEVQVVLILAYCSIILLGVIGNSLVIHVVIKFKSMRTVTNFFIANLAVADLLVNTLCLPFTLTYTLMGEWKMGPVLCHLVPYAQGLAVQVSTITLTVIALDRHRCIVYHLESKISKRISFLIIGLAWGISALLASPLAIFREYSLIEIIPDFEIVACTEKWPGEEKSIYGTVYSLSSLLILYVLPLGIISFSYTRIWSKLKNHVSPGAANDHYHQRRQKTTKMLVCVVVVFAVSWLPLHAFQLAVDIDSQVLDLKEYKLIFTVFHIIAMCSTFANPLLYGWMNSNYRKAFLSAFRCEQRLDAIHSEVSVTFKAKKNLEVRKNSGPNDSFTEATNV

T2: human Y5 receptor (Q15761, NPY5R_HUMAN, Uniprot) (human, UniProt Q15761 1-445)
T2 construct: whole, on cells; Assayed as membrane preparations of the expressing cells
T2 sequence (looked up): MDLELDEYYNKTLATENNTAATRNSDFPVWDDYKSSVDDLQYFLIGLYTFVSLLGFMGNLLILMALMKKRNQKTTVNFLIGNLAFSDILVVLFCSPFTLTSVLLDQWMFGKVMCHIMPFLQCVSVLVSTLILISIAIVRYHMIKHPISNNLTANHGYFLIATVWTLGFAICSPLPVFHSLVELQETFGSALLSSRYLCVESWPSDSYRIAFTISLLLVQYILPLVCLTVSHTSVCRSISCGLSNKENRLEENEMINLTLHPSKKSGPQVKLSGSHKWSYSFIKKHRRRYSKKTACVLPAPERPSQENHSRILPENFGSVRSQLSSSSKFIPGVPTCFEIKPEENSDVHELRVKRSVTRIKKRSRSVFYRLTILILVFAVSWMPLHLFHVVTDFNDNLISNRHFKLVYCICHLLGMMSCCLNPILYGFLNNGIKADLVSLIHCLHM


Tests used:
[1] = target: T1, human Y2 receptor (P49146, NPY2R_HUMAN, …); assay: SPA vs [125I]-PYY(1-36)
Description: (§1) Human Y receptor SPA binding assay were performed in white 96-well plates in a total volume of 200 μl per well.
(§2) Plates were sealed and incubated at +25° C. for 2 hours in a plate shaker set at 400 rpm and thereafter centrifuged at 1500 rpm for 10 minutes prior to reading of luminescence on a microplate scintillation and luminescence counter.

[2] = target: T1, human Y2 receptor (P49146, NPY2R_HUMAN, …); assay: cell-based or functional assay
[3] = target: T3, human Y4 receptor (P50391, NPY4R_HUMAN, Uniprot) (human, UniProt P50391 1-375); assay: SPA vs [125I]-PP
T3 construct: whole, on cells; Assayed as membrane preparations of the expressing cells
Description: as §1, §2

[4] = target: T2, human Y5 receptor (Q15761, NPY5R_HUMAN, …); assay: SPA vs [125I]-PYY(1-36)
Description: as §1, §2

[5] = target: T2, human Y5 receptor (Q15761, NPY5R_HUMAN, …); assay: ratio of SPA values, Y2 as reference
Description: as §1, §2

[6] = target: T3, human Y4 receptor (P50391, NPY4R_HUMAN, …); assay: ratio of SPA values, Y2 as reference
Description: as §1, §2

T3 sequence (P50391 whole entry, one chain of several): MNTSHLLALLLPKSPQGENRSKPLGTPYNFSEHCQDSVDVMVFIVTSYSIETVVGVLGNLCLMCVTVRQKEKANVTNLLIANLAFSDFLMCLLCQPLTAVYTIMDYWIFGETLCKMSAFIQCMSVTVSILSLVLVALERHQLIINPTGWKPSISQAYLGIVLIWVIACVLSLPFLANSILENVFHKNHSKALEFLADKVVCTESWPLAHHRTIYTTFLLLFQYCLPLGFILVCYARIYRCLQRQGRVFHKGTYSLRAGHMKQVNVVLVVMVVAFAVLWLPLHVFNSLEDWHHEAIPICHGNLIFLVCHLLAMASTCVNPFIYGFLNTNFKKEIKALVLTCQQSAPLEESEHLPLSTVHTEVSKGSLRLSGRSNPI

Binder	Ki [1] [nM]	Y2 EC50, Actone functional potency assay [2] [nM]	Ki [3] [nM]	Ki [4] [nM]	Ratio of Y5/Y2 EC50 values [5]	Ratio of Y4/Y2 EC50 values [6]
RPEKPPEDASPEELQRYYASLRHYYNWLTRQRY (N-terminal alpha-amino (position 4): 3-methylbutanoyl; Lys7 (hPYY(1-36) numbering) epsilon-amino: [2-[2-[2-[[(4S)-4-carboxy-4-(13-carboxytridecanoylamino)butanoyl]amino]ethoxy]ethoxy]acetyl]; C-terminal amide, also called Compound 71; 71)	0.51	0.5	–	–	–	–
Isovaleryl-RPEAPGK([γGlu-AEEA-γGlu-C18 diacid])DASPEELQRYYAELRHYYNWLTRQRY-NH2 (SMILES CC(C)CC(=O)N[C@@H](CCCNC(=N)N)C(=O)N1CCC[C@H]1C(=O)N[C@@H](CCC(=O)O)C(=O)N[C@@H](C)C(=O)N1CCC[C@H]1C(=O)NCC(=O)N[C@@H](CCCCNC(=O)CC[C@H](NC(=O)COCCOCCNC(=O)CC[C@H](NC(=O)CCCCCCCCCCCCCCCCC(=O)O)C(=O)O)C(=O)O)C(=O)N[C@@H](CC(=O)O)C(=O)N[C@@H](C)C(=O)N[C@@H](CO)C(=O)N1CCC[C@H]1C(=O)N[C@@H](CCC(=O)O)C(=O)N[C@@H](CCC(=O)O)C(=O)N[C@@H](CC(C)C)C(=O)N[C@@H](CCC(N)=O)C(=O)N[C@@H](CCCNC(=N)N)C(=O)N[C@@H](Cc1ccc(O)cc1)C(=O)N[C@@H](Cc1ccc(O)cc1)C(=O)N[C@@H](C)C(=O)N[C@@H](CCC(=O)O)C(=O)N[C@@H](CC(C)C)C(=O)N[C@@H](CCCNC(=N)N)C(=O)N[C@@H](Cc1c[nH]cn1)C(=O)N[C@@H](Cc1ccc(O)cc1)C(=O)N[C@@H](Cc1ccc(O)cc1)C(=O)N[C@@H](CC(N)=O)C(=O)N[C@@H](Cc1c[nH]c2ccccc12)C(=O)N[C@@H](CC(C)C)C(=O)N[C@H](C(=O)N[C@@H](CCCNC(=N)N)C(=O)N[C@@H](CCC(N)=O)C(=O)N[C@@H](CCCNC(=N)N)C(=O)N[C@@H](Cc1ccc(O)cc1)C(N)=O)[C@@H](C)O, also called Compound 53; 53)	1.15	0.77	9290	452	393	8080
Isovaleryl-RPEAPGK([AEEA-AEEA-γGlu-C18 diacid])DASPEELQRYYAELRHYYNWLTRQRY-NH2 (also called Compound 52; 52)	0.66	–	5690	182	275	8620
RPEKPPEDASPEELQRYYASLRHYYNWLTRQRY (N-terminal alpha-amino (position 4): 3-methylbutanoyl; Lys7 (hPYY(1-36) numbering) epsilon-amino: [(4S)-4-carboxy-4-[[(4S)-4-carboxy-4-(19-carboxynonadecanoylamino)butanoyl]amino]butanoyl]; C-terminal amide, also called Compound 12; 12)	1.1	4.35	–	–	–	–
Isovaleryl-RPEAPGK([γGlu-AEEA-γGlu-C18 diacid])DASPEELQRYYESLRHYYNWLTRQRY-NH2 (SMILES CC(C)CC(=O)N[C@@H](CCCNC(=N)N)C(=O)N1CCC[C@H]1C(=O)N[C@@H](CCC(=O)O)C(=O)N[C@@H](C)C(=O)N1CCC[C@H]1C(=O)NCC(=O)N[C@@H](CCCCNC(=O)CC[C@H](NC(=O)COCCOCCNC(=O)CC[C@H](NC(=O)CCCCCCCCCCCCCCCCC(=O)O)C(=O)O)C(=O)O)C(=O)N[C@@H](CC(=O)O)C(=O)N[C@@H](C)C(=O)N[C@@H](CO)C(=O)N1CCC[C@H]1C(=O)N[C@@H](CCC(=O)O)C(=O)N[C@@H](CCC(=O)O)C(=O)N[C@@H](CC(C)C)C(=O)N[C@@H](CCC(N)=O)C(=O)N[C@@H](CCCNC(=N)N)C(=O)N[C@@H](Cc1ccc(O)cc1)C(=O)N[C@@H](Cc1ccc(O)cc1)C(=O)N[C@@H](CCC(=O)O)C(=O)N[C@@H](CO)C(=O)N[C@@H](CC(C)C)C(=O)N[C@@H](CCCNC(=N)N)C(=O)N[C@@H](Cc1c[nH]cn1)C(=O)N[C@@H](Cc1ccc(O)cc1)C(=O)N[C@@H](Cc1ccc(O)cc1)C(=O)N[C@@H](CC(N)=O)C(=O)N[C@@H](Cc1c[nH]c2ccccc12)C(=O)N[C@@H](CC(C)C)C(=O)N[C@H](C(=O)N[C@@H](CCCNC(=N)N)C(=O)N[C@@H](CCC(N)=O)C(=O)N[C@@H](CCCNC(=N)N)C(=O)N[C@@H](Cc1ccc(O)cc1)C(N)=O)[C@@H](C)O, also called Compound 50; 50)	3.3	–	–	122	–	–
Isovaleryl-RPEK([γGlu-C18 diacid])PTEDASPEELQRYYQSLRHYYNWLTRQRY-NH2 (also called Compound 43)	–	0.77	6400	509	–	–
RPEKPTEDASPEELQRYYVSLRHYYNWLTRQRY (HELM PEPTIDE1{[CC(C)CC(=O)[*:2]].R.P.E.K.P.T.E.D.A.S.P.E.E.L.Q.R.Y.Y.V.S.L.R.H.Y.Y.N.W.L.T.R.Q.R.Y.[am]}|PEPTIDE2{[O=C(O)CCCCCCCCCCCCCCCCC(=O)[*:2]].[gGlu]}$PEPTIDE1,PEPTIDE2,5:R3-2:R2$$$V2.0; SMILES CC(C)CC(=O)N[C@@H](CCCNC(=N)N)C(=O)N1CCC[C@H]1C(=O)N[C@@H](CCC(=O)O)C(=O)N[C@@H](CCCCNC(=O)CC[C@H](NC(=O)CCCCCCCCCCCCCCCCC(=O)O)C(=O)O)C(=O)N1CCC[C@H]1C(=O)N[C@H](C(=O)N[C@@H](CCC(=O)O)C(=O)N[C@@H](CC(=O)O)C(=O)N[C@@H](C)C(=O)N[C@@H](CO)C(=O)N1CCC[C@H]1C(=O)N[C@@H](CCC(=O)O)C(=O)N[C@@H](CCC(=O)O)C(=O)N[C@@H](CC(C)C)C(=O)N[C@@H](CCC(N)=O)C(=O)N[C@@H](CCCNC(=N)N)C(=O)N[C@@H](Cc1ccc(O)cc1)C(=O)N[C@@H](Cc1ccc(O)cc1)C(=O)N[C@H](C(=O)N[C@@H](CO)C(=O)N[C@@H](CC(C)C)C(=O)N[C@@H](CCCNC(=N)N)C(=O)N[C@@H](Cc1c[nH]cn1)C(=O)N[C@@H](Cc1ccc(O)cc1)C(=O)N[C@@H](Cc1ccc(O)cc1)C(=O)N[C@@H](CC(N)=O)C(=O)N[C@@H](Cc1c[nH]c2ccccc12)C(=O)N[C@@H](CC(C)C)C(=O)N[C@H](C(=O)N[C@@H](CCCNC(=N)N)C(=O)N[C@@H](CCC(N)=O)C(=O)N[C@@H](CCCNC(=N)N)C(=O)N[C@@H](Cc1ccc(O)cc1)C(N)=O)[C@@H](C)O)C(C)C)[C@@H](C)O, also called Compound 44; 44)	0.33	1.35	6670	470	1420	20200
Isovaleryl-RPEAPPK([γGlu-AEEA-γGlu-Hexadecanoyl(16-SO3H)])DASPEELQRYYASLRHYYNWLTRQRY-NH2 (SMILES CC(C)CC(=O)N[C@@H](CCCNC(=N)N)C(=O)N1CCC[C@H]1C(=O)N[C@@H](CCC(=O)O)C(=O)N[C@@H](C)C(=O)N1CCC[C@H]1C(=O)N1CCC[C@H]1C(=O)N[C@@H](CCCCNC(=O)CC[C@H](NC(=O)COCCOCCNC(=O)CC[C@H](NC(=O)CCCCCCCCCCCCCCCS(=O)(=O)O)C(=O)O)C(=O)O)C(=O)N[C@@H](CC(=O)O)C(=O)N[C@@H](C)C(=O)N[C@@H](CO)C(=O)N1CCC[C@H]1C(=O)N[C@@H](CCC(=O)O)C(=O)N[C@@H](CCC(=O)O)C(=O)N[C@@H](CC(C)C)C(=O)N[C@@H](CCC(N)=O)C(=O)N[C@@H](CCCNC(=N)N)C(=O)N[C@@H](Cc1ccc(O)cc1)C(=O)N[C@@H](Cc1ccc(O)cc1)C(=O)N[C@@H](C)C(=O)N[C@@H](CO)C(=O)N[C@@H](CC(C)C)C(=O)N[C@@H](CCCNC(=N)N)C(=O)N[C@@H](Cc1c[nH]cn1)C(=O)N[C@@H](Cc1ccc(O)cc1)C(=O)N[C@@H](Cc1ccc(O)cc1)C(=O)N[C@@H](CC(N)=O)C(=O)N[C@@H](Cc1c[nH]c2ccccc12)C(=O)N[C@@H](CC(C)C)C(=O)N[C@H](C(=O)N[C@@H](CCCNC(=N)N)C(=O)N[C@@H](CCC(N)=O)C(=O)N[C@@H](CCCNC(=N)N)C(=O)N[C@@H](Cc1ccc(O)cc1)C(N)=O)[C@@H](C)O, also called Compound 69; 69)	0.94	–	5690	146	–	–
Isovaleryl-RPEAPGK([γGlu-AEEA-γGlu-C18 diacid])DASPEELQRYYASLRHYYNWLTRQRY-NH2 (also called Compound 59; 59)	–	–	–	279	–	–
